The values below come from patent US20260070987A1.

Where a chain is given by its changes, count along the chain named. In names and notes the source's numbering stands.

By Kd is commonly meant the free concentration of one partner at which half of the binding sites on the other are occupied at equilibrium, for simple one-to-one binding.

B1: equine IgG1 N434M (antibody, part only; not given: Variable domains, not shown: another chain or arm of the molecule)
constant: ASTTAPKVFALAPGCGTTSDSTVALGCLVSGYFPEPVKVSWNSGSLTSGVHTFPSVLQSSGFYSLSSMVTVPASTWTSETYICNVVHAASNFKVDKRIEPIPDNHQKVCDMSKCPKCPAPELLGGPSVFIFPPNPKDTLMITRTPEVTCVVVDVSQENPDVKFNWYMDGVEVRTATTRPKEEQFNSTYRVVSVLRIQHQDWLSGKEFKCKVNNQALPQPIERTITKTKGRSQEPQVYVLAPHPDELSKSKVSVTCLVKDFYPPEINIEWQSNGQPELETKYSTTQAQQDSDGSYFLYSKLSVDRNRWQQGTTFTCGVMHEALHMHYTQKNVSKNPGK
B2: equine IgG1 N434Q (antibody, part only; not given: variable domains, not shown: another chain or arm of the molecule)
constant: B1 constant with M324Q
B3: equine IgG1 Y436I (antibody, part only; not given: variable domains, not shown: another chain or arm of the molecule)
constant: B1 constant with M324N, Y326I
B4: equine IgG1 N434S (antibody, part only; not given: variable domains, not shown: another chain or arm of the molecule)
constant: B1 constant with M324S
B5: equine IgG1 Y436E (antibody, part only; not given: variable domains, not shown: another chain or arm of the molecule)
constant: B1 constant with M324N, Y326E
B6: equine IgG1 N434V (antibody, part only; not given: variable domains, not shown: another chain or arm of the molecule)
constant: B1 constant with M324V
B7: equine IgG1 N434P (antibody, part only; not given: variable domains, not shown: another chain or arm of the molecule)
constant: B1 constant with M324P
B8: equine IgG1 N434T (antibody, part only; not given: variable domains, not shown: another chain or arm of the molecule)
constant: B1 constant with M324T
B9: equine IgG1 Y436H (antibody, part only; not given: variable domains, not shown: another chain or arm of the molecule)
constant: B1 constant with M324N, Y326H
B10: equine IgG1 Y436K (antibody, part only; not given: variable domains, not shown: another chain or arm of the molecule)
constant: B1 constant with M324N, Y326K
B11: equine IgG1 T286F (antibody, part only; not given: variable domains, not shown: another chain or arm of the molecule)
constant: B1 constant with T174F, M324N
B12: equine IgG1 Y436G (antibody, part only; not given: variable domains, not shown: another chain or arm of the molecule)
constant: B1 constant with M324N, Y326G
B13: equine IgG1 Y436M (antibody, part only; not given: variable domains, not shown: another chain or arm of the molecule)
constant: B1 constant with M324N, Y326M
B14: equine IgG1 Y436D (antibody, part only; not given: variable domains, not shown: another chain or arm of the molecule)
constant: B1 constant with M324N, Y326D
B15: equine IgG1 N434R (antibody, part only; not given: variable domains, not shown: another chain or arm of the molecule)
constant: B1 constant with M324R
B16: equine IgG1 N434Y (antibody, part only; not given: Variable domains, not shown: another chain or arm of the molecule)
constant: B1 constant with M324Y
B17: equine IgG1 Y436A (antibody, part only; not given: variable domains, not shown: another chain or arm of the molecule)
constant: B1 constant with M324N, Y326A
B18: equine IgG1 Y436F (antibody, part only; not given: variable domains, not shown: another chain or arm of the molecule)
constant: B1 constant with M324N, Y326F
B19: equine IgG1 Y436L (antibody, part only; not given: variable domains, not shown: another chain or arm of the molecule)
constant: B1 constant with M324N, Y326L
B20: equine IgG1 Y436C (antibody, part only; not given: Variable domains, not shown: another chain or arm of the molecule)
constant: B1 constant with M324N, Y326C
B21: equine IgG1 T286E (antibody, part only; not given: variable domains, not shown: another chain or arm of the molecule)
constant: B1 constant with T174E, M324N

For the experiment, the target named is equine FcRn (large alpha subunit p51) / equine beta-2-microglobulin complex, biotinylated (equine) (UniProt P30441). The experiment is described as follows: SPR (Biacore), pH 6. On the technique in general: In SPR one partner is held on a chip, and binding of the other changes the refractive index at the surface.
Chain of UniProt P30441 (P30441 21-118, one chain of several): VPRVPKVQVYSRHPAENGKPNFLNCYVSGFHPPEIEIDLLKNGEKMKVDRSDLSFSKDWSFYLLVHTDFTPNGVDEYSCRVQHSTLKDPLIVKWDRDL
Molecule B1 came in with a Kd of 29 nM. In the case of B2 it was 12.8 nM. In the case of B3 it was 7.84 nM. In the case of B4 it was 10 nM. With B5, the Kd was found to be 33.8 nM. On to B6, for which the Kd was 31.2 nM. The figure for B7 is 25 nM; for B8 it is 19.6 nM; for B9 it is 19.1 nM. The figure for B10 is 18 nM; for B11 it is 18.5 nM; for B12 it is 22 nM.

Consider B13, for which the Kd came to 11.1 nM.

For B14, the Kd amounted to 28.4 nM. B15 yielded a Kd of 14 nM. Regarding B16, the Kd turned out to be 2.15 nM. Compared with the last molecule, the Kd is about 6.5-fold lower. The figure for B17 is 20.4 nM; for B18 it is 12.5 nM. In turn, B19 registered a dissociation constant (Kd) of 12.4 nM.

Molecule B20 had a Kd of 32.8 nM. The molecule B21 displayed a Kd of 21.9 nM. This Kd and that of the molecule before are within 1.5-fold of each other.
